# Laboratory results taken from US20180162947A1 (UCB, published 2018).
# Molecular target: T1, recombinant human CSF-1R (form not stated) (human, UniProt P07333 20-512, limits assumed)
# T1 construct: for the ELISA no species is stated; also called recombinant CSF-1R; recombinant CSF-1R protein
# Assay: BIAcore, humanisation stage, crude cell supernatant
# T1 sequence (P07333 20-512 limits assumed): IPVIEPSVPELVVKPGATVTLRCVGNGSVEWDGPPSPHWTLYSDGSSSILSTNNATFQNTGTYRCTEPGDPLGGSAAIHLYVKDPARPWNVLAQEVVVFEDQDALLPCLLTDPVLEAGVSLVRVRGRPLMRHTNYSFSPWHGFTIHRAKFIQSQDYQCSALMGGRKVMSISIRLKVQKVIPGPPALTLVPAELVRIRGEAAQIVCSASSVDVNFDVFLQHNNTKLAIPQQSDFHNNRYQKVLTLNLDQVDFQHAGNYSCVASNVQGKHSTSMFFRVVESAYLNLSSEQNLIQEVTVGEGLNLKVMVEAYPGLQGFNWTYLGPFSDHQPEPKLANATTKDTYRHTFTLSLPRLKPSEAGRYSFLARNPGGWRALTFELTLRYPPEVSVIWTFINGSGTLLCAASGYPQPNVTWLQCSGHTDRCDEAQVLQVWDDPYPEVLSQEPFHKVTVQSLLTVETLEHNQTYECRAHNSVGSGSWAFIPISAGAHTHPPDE
Binder,Kd,koff,kon
"969gH1gL6 (antibody, human IgG4 S228P, kappa, name in Kabat numbering, V domains shown, Humanised IgG4 (S241P)/kappa; positions are Kabat) VH: EVTLKESGPALVKPTQTLTLTCTFSGFSLTTYGMGVGWIRQPPGKALEWLANIWWDDDKYYNPSLKNRLTISKDTSKNQAVLTMTNMDPVDTATYYCARIGPIKYPTAPYRYFDFWGQGTMVTVSS VL: DIQMTQSPSSLSASVGDRVTITCLASEDIYDNLAWYQKKPGKAPKLLIYYASSLQDGVPSRFSGSGSGTDFTLTISSLQPEDFATYYCLQDSEYPWTFGGGTKVEIKR",4.4 pM,5e-06 s⁻¹,1.15e+06 M⁻¹ s⁻¹
"969gH1gL5 (antibody, human IgG4 S228P, kappa, name in Kabat numbering, V domains shown, Humanised IgG4 (S241P)/kappa; positions are Kabat) VH: EVTLKESGPALVKPTQTLTLTCTFSGFSLTTYGMGVGWIRQPPGKALEWLANIWWDDDKYYNPSLKNRLTISKDTSKNQAVLTMTNMDPVDTATYYCARIGPIKYPTAPYRYFDFWGQGTMVTVSS VL: DIQMTQSPSSLSASVGDRVTITCLASEDIYDNLAWYQQKPGKAPKLLIYYASSLQDGVPSRFSGSGSGTDFTLTISSLQPEDFATYFCLQDSEYPWTFGGGTKVEIKR",6.6 pM,6.11e-06 s⁻¹,926000 M⁻¹ s⁻¹
"969gH1gL8 (antibody, human IgG4 S228P, kappa, name in Kabat numbering, V domains shown, Humanised IgG4 (S241P)/kappa; positions are Kabat) VH: EVTLKESGPALVKPTQTLTLTCTFSGFSLTTYGMGVGWIRQPPGKALEWLANIWWDDDKYYNPSLKNRLTISKDTSKNQAVLTMTNMDPVDTATYYCARIGPIKYPTAPYRYFDFWGQGTMVTVSS VL: DIQMTQSPSSLSASVGDRVTITCLASEDIYDNLAWYQQKPGKAPKLLIYYASSLQDGVPSRFSGSGSGTDFTLTISSLQPEDFATYYCLQDSEYPWTFGGGTKVEIKR",4.3 pM,5e-06 s⁻¹,1.17e+06 M⁻¹ s⁻¹
"969gH1gL3 (antibody, human IgG4 S228P, kappa, name in Kabat numbering, V domains shown, Humanised IgG4 (S241P)/kappa; positions are Kabat) VH: EVTLKESGPALVKPTQTLTLTCTFSGFSLTTYGMGVGWIRQPPGKALEWLANIWWDDDKYYNPSLKNRLTISKDTSKNQAVLTMTNMDPVDTATYYCARIGPIKYPTAPYRYFDFWGQGTMVTVSS VL: DIQMTQSPSSLSASVGDRVTITCLASEDIYDNLAWYQKKPGKAPKLLIYYASSLQDGVPSRFSGSGSGTDFTLTISSLQPEDFATYFCLQDSEYPWTFGGGTKVEIKR",2.8 pM,5e-06 s⁻¹,1.8e+06 M⁻¹ s⁻¹
"969gH2gL2 (antibody, human IgG4 S228P, kappa, name in Kabat numbering, V domains shown, Humanised IgG4 (S241P)/kappa; positions are Kabat) VH: EVTLKESGPALVKPTQTLTLTCTFSGFSLTTYGMGVGWIRQPPGKALEWLANIWWDDDKYYNPSLKNRLTISKDTSKNQVVLTMTNMDPVDTATYYCARIGPIKYPTAPYRYFDFWGQGTMVTVSS VL: DIQMTQSPSSLSASVGDRVTITCLASEDIYDNLAWYQQKPGKAPKLLIYYASSLQDGVPSRFSGSGSGTDYTLTISSLQPEDFATYFCLQDSEYPWTFGGGTKVEIKR",3.4 pM,6.11e-06 s⁻¹,1.78e+06 M⁻¹ s⁻¹

# Next, values leading:
Kd,koff,kon,Binder
3.4 pM,5e-06 s⁻¹,1.46e+06 M⁻¹ s⁻¹,"969gH1gL2 (antibody, human IgG4 S228P, kappa, name in Kabat numbering, V domains shown, Humanised IgG4 (S241P)/kappa; positions are Kabat) VH: EVTLKESGPALVKPTQTLTLTCTFSGFSLTTYGMGVGWIRQPPGKALEWLANIWWDDDKYYNPSLKNRLTISKDTSKNQAVLTMTNMDPVDTATYYCARIGPIKYPTAPYRYFDFWGQGTMVTVSS VL: DIQMTQSPSSLSASVGDRVTITCLASEDIYDNLAWYQQKPGKAPKLLIYYASSLQDGVPSRFSGSGSGTDYTLTISSLQPEDFATYFCLQDSEYPWTFGGGTKVEIKR"
3.3 pM,5e-06 s⁻¹,1.5e+06 M⁻¹ s⁻¹,"969gH1gL7 (antibody, human IgG4 S228P, kappa, name in Kabat numbering, V domains shown, Humanised IgG4 (S241P)/kappa; position is Kabat) VH: EVTLKESGPALVKPTQTLTLTCTFSGFSLTTYGMGVGWIRQPPGKALEWLANIWWDDDKYYNPSLKNRLTISKDTSKNQAVLTMTNMDPVDTATYYCARIGPIKYPTAPYRYFDFWGQGTMVTVSS VL: DIQMTQSPSSLSASVGDRVTITCLASEDIYDNLAWYQQKPGKAPKLLIYYASSLQDGVPSRFSGSGSGTDYTLTISSLQPEDFATYYCLQDSEYPWTFGGGTKVEIKR"
2.1 pM,5e-06 s⁻¹,2.39e+06 M⁻¹ s⁻¹,"969gH1gL4 (antibody, human IgG4 S228P, kappa, name in Kabat numbering, V domains shown, Humanised IgG4 (S241P)/kappa; positions are Kabat) VH: EVTLKESGPALVKPTQTLTLTCTFSGFSLTTYGMGVGWIRQPPGKALEWLANIWWDDDKYYNPSLKNRLTISKDTSKNQAVLTMTNMDPVDTATYYCARIGPIKYPTAPYRYFDFWGQGTMVTVSS VL: DIQMTQSPSSLSASVGDRVTITCLASEDIYDNLAWYQKKPGKAPKLLIYYASSLQDGVPSRFSGSGSGTDYTLTISSLQPEDFATYYCLQDSEYPWTFGGGTKVEIKR"
